How the values were obtained:
[1] = biological target: RelSt3 relaxase encoded by ICESt3 from Streptococcus thermophilus (Streptococcus thermophilus (ICESt3)); assay: SEC; calibrated Superdex 200 gel filtration, final step of purification; single elution peak at 72.4 mL, apparent molecular weight about 88 kDa against a predicted 48.5 kDa
[2] = biological target: RelSt3 relaxase encoded by ICESt3 from Streptococcus thermophilus (Streptococcus thermophilus (ICESt3)); assay: cross-linking; 5 ug RelSt3 in 20 uL with 0.001 to 0.1% glutaraldehyde, 15 min at room temperature, stopped with glycine; 10% SDS-PAGE, Coomassie
[3] = biological target: RelSt3 relaxase encoded by ICESt3 from Streptococcus thermophilus (Streptococcus thermophilus (ICESt3)); assay: AUC; sedimentation velocity at 1 and 5 uM in 20 mM Tris-HCl pH 7.5, 500 mM NaCl, 25 °C, 42,000 rpm, absorbance at 280 nm; c(s) analysis with Sedfit

Measured: stoichiometry N

RelSt3 relaxase encoded by ICESt3 from Streptococcus thermophilus (enzyme)
2: all assays above

From publication PMC6499999
